# Experimental data as given in patent publication US10254283.
# Experiments:
# [1] = biological target: recombinant Histone H3.1 (New England BioLabs, M2503S)
# [2] = biological target: Flag-eIF4B (S406A)
# [3] = biological target: Flag-eIF4B (wild type)
# Chain of Flag-eIF4B (wild type) (chain, as listed by the source): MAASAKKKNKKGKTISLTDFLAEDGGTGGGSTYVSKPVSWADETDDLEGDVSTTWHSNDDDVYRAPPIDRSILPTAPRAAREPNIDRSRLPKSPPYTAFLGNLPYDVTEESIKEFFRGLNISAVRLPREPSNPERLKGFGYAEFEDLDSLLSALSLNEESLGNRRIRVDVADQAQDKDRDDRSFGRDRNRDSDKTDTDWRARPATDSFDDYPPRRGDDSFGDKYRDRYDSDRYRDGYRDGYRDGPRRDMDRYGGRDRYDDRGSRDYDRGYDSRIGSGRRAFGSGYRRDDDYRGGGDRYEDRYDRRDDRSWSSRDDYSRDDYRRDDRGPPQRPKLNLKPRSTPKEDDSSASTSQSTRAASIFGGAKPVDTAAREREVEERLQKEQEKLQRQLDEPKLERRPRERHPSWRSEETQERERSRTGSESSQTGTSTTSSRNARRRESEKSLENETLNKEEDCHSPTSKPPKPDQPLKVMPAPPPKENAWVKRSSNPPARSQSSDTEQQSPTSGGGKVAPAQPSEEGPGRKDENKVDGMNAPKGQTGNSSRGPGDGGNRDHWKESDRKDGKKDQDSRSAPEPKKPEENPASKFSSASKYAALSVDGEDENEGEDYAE
# Chain of Flag-eIF4B (S406A) (chain, as listed by the source S406A): as the sequence (chain, as listed by the source) above, with S406A counted along it
protein,measurement,setting,value
recombinant MELK (kinase domain) (protein) MKDYDELLKYYELHETIGTGGFAKVKLACHILTGEMVAIKIMDKNTLGSDLPRIKTEIEALKNLRHQHICQLYHVLETANKIFMVLEYCPGGELFDYIISQDRLSEEETRVVFRQIVSAVAYVHSQGYAHRDLKPENLLFDEYHKLKLIDFGLCAKPKGNKDYHLQTCCGSLAYAAPELIQGKSYLGSEADVWSMGILLYVLMCGFLPFDDDNVMALYKKIMRGKYDVPKWLSPSSILLLQQMLQVDPKKRISMKNLLNHPWIMQDYNYPVEWQSKNPFIHLDDDCVTELSVHHRNNRQTMEDLISLWQYDHLTATYLLLLAKKARGKPVRLRLSSFSCG,"in vitro kinase assay, phosphorylation of Histone H3 at Thr3, Ser10 and Thr11 (immunoblot)",[1],"Thr3, Ser10, and Thr11 of human Histone H3 were readily phosphorylated by the kinase domain of MELK"
same,"in vitro kinase assay, phosphorylation of eIF4B at S406 (immunoblot)",[2],This phosphorylation was abolished when wild type (wt) eIF4B was replaced with a mutant eIF4B (S406A)
same,"in vitro kinase assay, phosphorylation of eIF4B at Ser406 (immunoblot)",[3],"Ser406, but not Ser422, of human eIF4B was readily phosphorylated by full-length MELK or the kinase domain of MELK"
same,"in vitro kinase assay, phosphorylation of eIF4B at Ser422 (immunoblot)",[3],MELK does not phosphorylates eIF4B at S422 in vitro
